Assay results from paper PMC12914668.

Legend:
Experiment in all cases: fluorescence polarisation; fluorescence anisotropy; 5 nM OG488-labelled histone monomer held constant, ligase complex titrated; 20 mM Tris-HCl pH 7.5, 10 mM NaCl, 5% glycerol, 1 mM DTT; 25 °C, 1 to 2.5 h; BSA-coated black 96-well plates
[1] = biological target: Xenopus laevis histone H2A K119C, Oregon Green 488 labelled (Xenopus laevis)
[2] = biological target: Xenopus laevis histone H3, Oregon Green 488 labelled at C110 (Xenopus laevis) (UniProt P84233)
[3] = biological target: Xenopus laevis histone H4 V22C, Oregon Green 488 labelled (Xenopus laevis) (UniProt P62799)

Substance | Kd [1] | Kd [2] | Kd [3]
ASB9-ELOB/C-CUL5-RBX2 (ASB9-CRL5), not neddylated (from UniProt Q96DX5 1-294; Q15370 1-118; Q15369 1-112; Q93034 1-780; Q9UBF6 1-113) (complex) | 341 nM | 187 nM | 79.7 nM
NEDD8-ASB9-ELOB/C-CUL5-RBX2 (neddylated ASB9-CRL5) (from UniProt Q96DX5 1-294; Q15370 1-118; Q15369 1-112; Q93034 1-780; Q9UBF6 1-113; Q15843 1-76) (complex) | – | 78.2 nM | 48.4 nM
